Measured values reported in patent US20230381281A1, “PHARMACEUTICAL COMPOSITION COMPRISING GLUCAGON/GLP-1/GIP TRIPLE AGONIST OR LONG-ACTING CONJUGATE THEREOF FOR PREVENTING OR TREATING LUPUS-RELATED DISEASES” (HANMI PHARM. CO., LTD., priority 2020, published 2023).
Bridge positions count the residues as written; N and C are the ends. Square brackets hold non-standard residues; d marks the D form. Ends that are not written are not given here. * marks the point of attachment. Acetyl(2-(4-imidazolyl)) = O=C(Cc1c[nH]cn1)*; Aib = CC(C)(N)C(=O)O

T1: human GIP receptor (human, UniProt P48546 22-466)
T1 sequence (looked up): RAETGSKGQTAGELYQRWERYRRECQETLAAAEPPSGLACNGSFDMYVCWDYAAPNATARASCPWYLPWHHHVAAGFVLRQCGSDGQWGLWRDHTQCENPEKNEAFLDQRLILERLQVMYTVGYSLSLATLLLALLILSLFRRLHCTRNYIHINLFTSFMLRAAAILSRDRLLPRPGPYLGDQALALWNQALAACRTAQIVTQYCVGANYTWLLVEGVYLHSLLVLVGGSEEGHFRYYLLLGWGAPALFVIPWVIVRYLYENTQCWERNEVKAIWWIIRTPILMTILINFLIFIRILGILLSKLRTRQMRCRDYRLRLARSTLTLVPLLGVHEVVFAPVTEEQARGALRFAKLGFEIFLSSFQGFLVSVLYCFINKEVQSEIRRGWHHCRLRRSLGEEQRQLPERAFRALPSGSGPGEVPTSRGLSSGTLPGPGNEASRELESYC


Legend:
Experiment in all cases: cell-based or functional assay
human GLP-1 receptor = human GLP-1 receptor (human, UniProt P43220 24-463)
human GCG receptor = human GCG receptor (human, UniProt P47871 26-477)
human GIP receptor = biological target: T1, human GIP receptor

Chain of human GCG receptor (P47871 26-477): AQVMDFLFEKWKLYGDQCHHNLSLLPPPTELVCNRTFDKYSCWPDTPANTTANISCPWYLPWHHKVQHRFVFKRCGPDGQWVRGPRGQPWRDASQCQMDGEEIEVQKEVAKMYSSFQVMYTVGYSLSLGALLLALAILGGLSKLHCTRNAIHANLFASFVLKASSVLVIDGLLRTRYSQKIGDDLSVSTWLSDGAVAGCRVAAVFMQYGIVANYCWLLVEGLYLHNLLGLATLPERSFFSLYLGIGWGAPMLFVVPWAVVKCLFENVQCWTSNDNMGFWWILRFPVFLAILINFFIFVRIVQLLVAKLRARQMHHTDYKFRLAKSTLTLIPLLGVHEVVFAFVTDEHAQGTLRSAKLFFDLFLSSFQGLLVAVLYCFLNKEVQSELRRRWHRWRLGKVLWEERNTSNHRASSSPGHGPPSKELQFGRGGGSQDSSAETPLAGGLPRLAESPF

| Binder | In vitro activity compared to native peptide (%) vs GLP-1 (human GLP-1 receptor) | In vitro activity compared to native peptide (%) vs Glucagon (human GCG receptor) | In vitro activity compared to native peptide (%) vs GIP (human GIP receptor) |
| --- | --- | --- | --- |
| {Acetyl(2-(4-imidazolyl))}-[Aib]QGTFTSDYSKYLDEKRQKEFVQWLLNTC (bridge 15-19) [Triple agonist of SEQ ID NO: 81] | 7.8% | 0.3% | < 0.1% |
| Y[Aib]QGTFTSDYSKYLDECRAKDFVQWLLDHHPSSGQPPPS (bridge 16-20) [Triple agonist of SEQ ID NO: 66] | 15.8% | 172% | 17.2% |
| Y[Aib]QGTFTSDYSKYLDEKRAKDFVQWLLDHHPSSGQPPPSC (bridge 16-20) [Triple agonist of SEQ ID NO: 76] | 10.3% | 47.6% | 11.7% |
| H[Aib]QGTFTSDVSKYLDGQAAQEFVAWLLKGC [Triple agonist of SEQ ID NO: 8] | 14.2% | 0.1% | < 0.1% |
| {Acetyl(2-(4-imidazolyl))}-[Aib]EGTFTSDYSIAMDEIHQKDFVDWLLAEC (bridge 15-19) [Triple agonist of SEQ ID NO: 84] | 4.2% | < 0.1% | < 0.1% |
| {Acetyl(2-(4-imidazolyl))}-[Aib]QGTFTSDYSKYLDECRAKEFVQWLLDHHPSSGQPPPS (bridge 15-19) [Triple agonist of SEQ ID NO: 73] | 22.6% | 5.4% | 3% |
| {Acetyl(2-(4-imidazolyl))}-[Aib]EGTFTSDYSIAMDEIHQKDFVNWLLAQC (bridge 15-19) [Triple agonist of SEQ ID NO: 83] | 47.3% | 1.3% | 0.4% |
| Y[Aib]QGTFTSDYSKCLDERAAKEFVQWLLDHHPSSGQPPPS (bridge 16-20) [Triple agonist of SEQ ID NO: 69] | 24.3% | 9.6% | 62.8% |
| Y[Aib]QGTFTSDYSKYLDEKAAKEFVQWLLDHHPSSGQPPPSC (bridge 16-20) [Triple agonist of SEQ ID NO: 75] | 35.1% | 8.5% | 18% |
| Y[Aib]QGTFTSDCSKYLDERAAKDFVQWLLDHHPSSGQPPPS (bridge 16-20) [Triple agonist of SEQ ID NO: 72] | 11.5% | 1% | 1.6% |
| H[Aib]QGTFTSDVSKYLDGQAAQEFVAWLLAGC [Triple agonist of SEQ ID NO: 9] | 32.1% | 0.13% | < 0.1% |
| H[Aib]EGTFTSDYSIAMDEIHQKDFVNWLLAQKC (bridge 16-20) [Triple agonist of SEQ ID NO: 79] | 41.5% | 4.9% | 1.4% |
| Y[Aib]QGTFTSDYSKCLDEKRAKDFVQWLLDHHPSSGQPPPS (bridge 16-20) [Triple agonist of SEQ ID NO: 70] | 15.1% | 71.3% | 64.4% |
| {Acetyl(2-(4-imidazolyl))}-[Aib]QGTFTSDYSKYLDEKRQKEFVQWLLDTC (bridge 15-19) [Triple agonist of SEQ ID NO: 82] | 9.5% | 1.1% | < 0.1% |
| {Acetyl(2-(4-imidazolyl))}-[Aib]QGTFTSDYSIAMDEIHQKDFVNWLLAQC (bridge 15-19) [Triple agonist of SEQ ID NO: 85] | 4.3% | < 0.1% | 0.3% |
| Y[Aib]QGTFTSDYSKYLDERACKDFVQWLLDHHPSSGQPPPS (bridge 16-20) [Triple agonist of SEQ ID NO: 71] | 90.1% | 12.7% | 94.7% |
| H[Aib]QGTFTSDYSKYLDEKRQKEFVQWLLDTKC (bridge 16-20) [Triple agonist of SEQ ID NO: 78] | 51% | 14% | 0.12% |
| {Acetyl(2-(4-imidazolyl))}-[Aib]EGTFTSDYSIAMDEIHQKDFVNWLLAQKC (bridge 15-19) [Triple agonist of SEQ ID NO: 90] | 7.4% | < 0.1% | < 0.1% |
| Y[Aib]QGTFTSDYSKYLDEKAAKDFVQWLLDHHPSSGQPPPSC (bridge 16-20) [Triple agonist of SEQ ID NO: 77] | 38.7% | 12.2% | 35.5% |
| {Acetyl(2-(4-imidazolyl))}-[Aib]QGTFTSDYSKYLDEKRQKEFVNWLLAQC (bridge 15-19) [Triple agonist of SEQ ID NO: 86] | 28.4% | 0.4% | 0.2% |
| Y[Aib]QGTFTSDYSKCLDEKAAKEFVQWLLDHHPSSGQPPPS (bridge 16-20) [Triple agonist of SEQ ID NO: 68] | 27.9% | 8.8% | 107% |
| H[Aib]QGTFTSDYSKCLDEKRAKEFVQWLLDHHPSSGQPPPS (bridge 16-20) [Triple agonist of SEQ ID NO: 65] | 95.4% | 25.2% | 11.6% |
| {Acetyl(2-(4-imidazolyl))}-[Aib]QGTFTSDYSIAMDEIHQKDFVNWLLNTC (bridge 15-19) [Triple agonist of SEQ ID NO: 87] | 0.9% | < 0.1% | < 0.1% |
| Y[Aib]QGTFTSDYSKYLDECAAKDFVQWLLDHHPSSGQPPPS (bridge (positions not given here); ends not checked; also: ring formation between underlined amino acids, places not given here) [Triple agonist of SEQ ID NO: 67] | 28.5% | 46.2% | 39.8% |
| {Acetyl(2-(4-imidazolyl))}-[Aib]QGTFTSDYSKYLDEKRQKEFVQWLLNTKC (bridge 15-19) [Triple agonist of SEQ ID NO: 88] | 9.6% | 0.3% | < 0.1% |
| {Acetyl(2-(4-imidazolyl))}-[Aib]QGTFTSDYSKYLDEKRQKEFVQWLLDTKC (bridge 15-19) [Triple agonist of SEQ ID NO: 89] | 7.1% | 0.7% | < 0.1% |
| {Acetyl(2-(4-imidazolyl))}-[Aib]QGTFTSDYSKCLDEKRAKEFVQWLLDHHPSSGQPPPS (bridge 15-19) [Triple agonist of SEQ ID NO: 74] | 12.9% | 0.9% | 1% |
| H[Aib]EGTFTSDYSIAMDEIHQKDFVDWLLAEKC (bridge 16-20) [Triple agonist of SEQ ID NO: 80] | 8.1% | 0% | 0.1% |
